From patent US20250121082A1 (SHANDONG BOAN BIOTECHNOLOGY, published 2025)
Numbering of substitutions follows the chain as printed.

T1: Human CD228 protein (human, UniProt P08582 20-708, limits assumed)
T1 construct: Recombinant protein made in CHO cells, purified over a Ni column; The printed entry begins with the leader (MRGPSG...) and ends with ten His; also called hCD228; CD228-His protein
T1 sequence: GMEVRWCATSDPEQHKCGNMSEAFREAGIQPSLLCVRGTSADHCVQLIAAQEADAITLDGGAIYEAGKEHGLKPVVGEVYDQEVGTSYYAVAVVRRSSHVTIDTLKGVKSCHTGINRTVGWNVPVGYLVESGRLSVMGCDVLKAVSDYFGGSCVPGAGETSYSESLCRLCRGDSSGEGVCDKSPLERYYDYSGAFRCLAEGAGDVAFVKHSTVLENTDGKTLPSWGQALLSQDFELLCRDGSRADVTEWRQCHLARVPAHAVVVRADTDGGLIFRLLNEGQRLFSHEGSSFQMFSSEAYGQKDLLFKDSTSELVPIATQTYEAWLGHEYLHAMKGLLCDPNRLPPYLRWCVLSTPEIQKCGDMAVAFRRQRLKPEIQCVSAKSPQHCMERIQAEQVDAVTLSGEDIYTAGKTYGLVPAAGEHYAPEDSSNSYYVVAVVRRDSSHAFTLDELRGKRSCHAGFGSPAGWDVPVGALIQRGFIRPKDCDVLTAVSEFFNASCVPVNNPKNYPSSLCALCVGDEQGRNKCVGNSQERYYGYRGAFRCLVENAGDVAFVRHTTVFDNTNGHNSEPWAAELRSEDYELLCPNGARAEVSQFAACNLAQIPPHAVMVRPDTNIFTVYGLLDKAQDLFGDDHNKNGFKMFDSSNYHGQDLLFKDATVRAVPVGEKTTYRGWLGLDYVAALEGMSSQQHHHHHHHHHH

T2: CD228 protein on human melanoma SK-MEL-5 cells (human, UniProt P08582 20-709)
T2 construct: whole, on cells; Endogenous CD228 on the cell line; also called SK-MEL-5 cells (expressing CD228 proteins)
T2 sequence (looked up): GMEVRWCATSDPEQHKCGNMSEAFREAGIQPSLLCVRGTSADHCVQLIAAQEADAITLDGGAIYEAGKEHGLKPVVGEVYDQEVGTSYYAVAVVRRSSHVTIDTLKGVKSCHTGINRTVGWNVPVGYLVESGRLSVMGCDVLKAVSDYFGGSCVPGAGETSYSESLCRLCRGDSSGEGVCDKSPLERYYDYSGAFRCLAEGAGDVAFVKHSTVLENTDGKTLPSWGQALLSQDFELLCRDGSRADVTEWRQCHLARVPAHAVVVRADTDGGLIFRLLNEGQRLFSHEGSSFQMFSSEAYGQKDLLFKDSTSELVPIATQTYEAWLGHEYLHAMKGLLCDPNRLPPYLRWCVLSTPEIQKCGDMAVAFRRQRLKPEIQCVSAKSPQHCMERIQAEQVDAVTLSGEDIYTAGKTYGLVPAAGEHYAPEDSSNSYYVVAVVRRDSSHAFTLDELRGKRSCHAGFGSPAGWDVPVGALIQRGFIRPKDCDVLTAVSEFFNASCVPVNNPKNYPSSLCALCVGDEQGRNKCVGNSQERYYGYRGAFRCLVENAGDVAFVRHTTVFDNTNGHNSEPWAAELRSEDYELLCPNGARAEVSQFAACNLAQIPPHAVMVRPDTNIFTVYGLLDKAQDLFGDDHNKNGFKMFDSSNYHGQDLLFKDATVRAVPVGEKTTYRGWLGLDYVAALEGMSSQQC

B1: CA149 (antibody, human IgG1, kappa, V domains shown)
VH: EVQLVESGGGVVQPGRSLRLSCAASGFTFSSYAMHWVRQAPGKGLEWVAVISFDGSNKYYTDSVKGRFTISRDNSKNTLYLQMNSLRAEDTAVYYCAREVPYYYGSGPFDYWGQGTLVTVSS
VL: EIVLTQSPATLSVSPGERATLSCRASQSVSSNLAWYQQKPGQAPRHLIDGASSRASGIPDRFSGSGSGTDFTLTISRLEPEDFAVYYCQQYGSSPPFTFGPGTKVDIKR
notes: Intact IgG1; also called CA149 antibody
B2: CA185 (antibody, human IgG1, kappa, V domains shown)
VH: B1 VH with F53Y, T61A
VL: EIVLTQSPGTLSLSPGERATLSCRASQSVSSSSLAWYQQKPGQAPRHLIDGASSRASGIPDRFSGSGSGTDFTLTISRLEPEDFAVYYCQQYGSSYTFGQGTKVDIKR
notes: Intact IgG1
B3: BA352 (antibody, human IgG1, kappa, V domains shown)
VH: EVQLVESGGGVVQPGRSLRLSCAASGFTFSSYAMHWVRQAPGKGLEWVAVISYDGSNKYYADSVKGRFTISRDNSKNTLYLQMNSLRAEDTAVYYCARGPYLAAAGTALTFDIWGQGTMVTVSS
VL: DIQMTQSPSAMSASVGDRVTITCRASQGINNYLAWFQQKPGKVPKRLIYAASSLQSGVPSRFSGSGSGTEFTLTISSLQPEDFATYYCLQHNSYPFTFGPGTKVDIKR
notes: Intact IgG1
B4: CA13 (antibody, human IgG1, kappa, V domains shown)
VH: EVQLVESGGGVVQPGRSLRLSCAASGFTFSSYAMHWVRQAPGKGLEWVAVISYDGSNKYYADSVKGRFTISRDNSKNTLFLQMNSLRAEDTAVYYCARDVYHYGSRSPYYYGMDVWGQGTTVTVSS
VL: DIVMTQSPSSLSASVGDRVTITCRASQGISNYLAWFQQKPGKVPKLLIYAASTLQSGVPSRFSGSGSGTDFTLTISSLQPEDVATYYCQKYNSAPFTFGPGTKVDIKR
notes: Intact IgG1 from fully human antibody-transgenic mice
B5: CA518 (antibody, human IgG1, kappa, V domains shown)
VH: B4 VH with Y60H, A97V
VL: B4 VL with V3Q, L11V, N31S, Y32W, F36Y, V43A, T53S
notes: Intact IgG1
B6: CA67 (antibody, human IgG1, kappa, V domains shown)
VH: B4 VH with F80Y
VL: B4 VL with V3Q, G28A, F36Y, Q55H, S56P
notes: Intact IgG1
B7: reference antibody hL49 (antibody, human IgG1, kappa, V domains shown)
VH: QVQLQESGPGLVKPSETLSLTCTVSGDSITSGYWNWIRQPPGKGLEYIGYISDSGITYYNPSLKSRVTISRDTSKNQYSLKLSSVTAADTAVYYCARRTLATYYAMDYWGQGTLVTVSS
VL: DFVMTQSPLSLPVTLGQPASISCRASQSLVHSDGNTYLHWYQQRPGQSPRLLIYRVSNRFSGVPDRFSGSGSGTDFTLKISRVEAEDVGVYYCSQSTHVPPTFGQGTKLEIKR
notes: also called H149; hL49 analogy

These binders were tested against T1, Human CD228 protein (assay: Octet competition on His-chip CD228; competitor: CA67).
Procedure: (§1) CD228 proteins were immobilized on His chips at 10 μg/mL with a threshold of 0.5 nm. The first CD228 antibody (30 μg/mL) was immobilized, and the competitive binding of the second CD228 antibody (30 μg/mL) was analyzed. The Octet 8K system was used to analyze the response of antibody 2 and to determine whether antibody 1 and antibody 2 were in competition.

Row | Octet response value | Binder
1 | 0.0087 | B1
2 | 0.0028 | B2
3 | 0.443 | B3
4 | -0.0021 | B4
5 | 0.0039 | B5
6 | -0.007 | B6
7 | 0.456 | B7

What follows are binders tested against T1, Human CD228 protein (assay: Octet competition on His-chip CD228; competitor: hl49).
Procedure: as §1

Row | Octet response value | Binder
8 | 0.348 | B1
9 | 0.356 | B2
10 | 0.0006 | B3
11 | 0.353 | B4
12 | 0.281 | B5
13 | 0.33 | B6
14 | 0.0169 | B7

The binders below were run against T1, Human CD228 protein (assay: Octet competition on His-chip CD228; competitor: CA13).
Procedure: as §1
(§2) The final competition analysis was conducted using the following calculation method: 1—response value/blank value.

Row | competition (1-response value/blank value) [%] | Binder
15 | 97 | B1
16 | 99 | B2
17 | -8 | B3
18 | 100 | B4
19 | 98 | B5
20 | 102 | B6
21 | -6 | B7

Biological target: T1, Human CD228 protein
Test: Octet competition on His-chip CD228; competitor: CA67
Remark: another data set of the same source
Procedure: as §1, §2

Row | competition (1-response value/blank value) [%] | Binder
22 | 98 | B1
23 | 99 | B2
24 | -4 | B3
25 | 100 | B4
26 | 99 | B5
27 | 102 | B6
28 | -7 | B7

Biological target: T1, Human CD228 protein
Test: Octet competition on His-chip CD228; competitor: hl49
Remark: another data set of the same source
Procedure: as §1, §2

Row | competition (1-response value/blank value) [%] | Binder
29 | 0 | B1
30 | -3 | B2
31 | 100 | B3
32 | -2 | B4
33 | 19 | B5
34 | 5 | B6
35 | 95 | B7

What follows are binders tested against T1, Human CD228 protein (assay: Octet competition on His-chip CD228; competitor: BA352).
Procedure: as §1, §2

Row | competition (1-response value/blank value) [%] | Binder
36 | -12 | B1
37 | -17 | B2
38 | 94 | B3
39 | -9 | B4
40 | -5 | B5
41 | -8 | B6
42 | 55 | B7

These binders were tested against T1, Human CD228 protein (assay: Octet competition on His-chip CD228; competitor: CA518).
Procedure: as §1, §2

Row | competition (1-response value/blank value) [%] | Binder
43 | 98 | B1
44 | 99 | B2
45 | -4 | B3
46 | 102 | B4
47 | 101 | B5
48 | 103 | B6
49 | -3 | B7

Each binder was assayed against T2, CD228 protein on human melanoma … (assay: flow cytometry on SK-MEL-5 cells, fluorescent secondary antibody, MFI).
Procedure: To a 96-well round-bottom plate, human melanoma SK-MEL-5 cells (ATCC, HTB-70) were added with a cell density of 7E4 cells/50 μL/well. The antibodies were serially diluted with an FACS buffer (PBS, Boster Biological Technology, Catalog No. PYG0021) and added to the 96-well round-bottom plate at 50 μL/well. The plate was then incubated at 4° C. for 1 h. The supernatant was discarded after centrifugation at 400 g for 4 min. The plate was washed once with FACS buffer, before a fluorescent secondary antibody (Jackson, 109545-008) at 100 μL/well was added. The mixture was incubated at 4° C. in the dark for 30 min and centrifuged at 400 g for 4 min. The supernatant was discarded. The cells were washed once with FACS buffer, resuspended in FACS buffer at 100 μL/well, and loaded on a flow cytometer (ACEA Pharma, NovoCyte 2060) for analysis. […] The isotype reference antibody in FIG. 4 is an irrelevant antibody targeting other antigens with constant regions similar to the experimental anti-CD228 antibodies but with different variable regions.

Row | EC50 [µg/mL] | Binder
50 | 0.135 | B1
51 | 0.123 | B2
52 | 0.152 | B3
53 | 0.083 | B4
54 | 0.081 | B5
55 | 0.096 | B6
56 | 0.195 | B7
